Reference: article PMC11392403

Molecular target: recombinant Fasciola hepatica enolase (rFhENO) (Fasciola hepatica) (UniProt Q27655)
Assay: SEC; Superdex 75 10/300 GL, 0.4 mL/min, 100 μg rFhENO injected; markers carbonic anhydrase 29 kDa, BSA 66 kDa, alcohol dehydrogenase 150 kDa; dimer to monomers

recombinant Fasciola hepatica enolase (rFhENO) (from UniProt Q27655 1-431) (enzyme)
percent of the protein eluting in the homodimeric form: 86.5% | stoichiometry N: 2
